Source: patent publication US20250304681A1 (BEIJING ECHO BIOTECH, published 2025)

Columns and labels:
[1] = target: T1, RAGE(1-404)-3xflag-eBFP (plasmid p605) on HepG2 cells; assay: flow cytometry on fixed p605-HepG2 cells, 1 ug and 5 ug in 100 uL, FITC anti-HA detection
T1 construct: also called p605-HepG2 cells; p605 cells
Protocol: (5) 1 μg and 5 μg of antiRAGE(A90)-Fc were respectively added to 100 μL of the incubation system to incubate at 4° C. for 2 h. The cells were washed and resuspended with 0.5% BSA diluted in PBS.
(6) 1 μL of FITC-conjugated antiHA antibody was respectively added to cells without A90-Fc antibody and cells incubated with A90-Fc antibody to incubate at room temperature for 1 h. The cells were washed twice with PBS, and then resuspended with PBS.

[2] = target: T2, RAGE(1-404)-3xflag-mCherry (plasmid p318) on 293F cells (human); assay: flow cytometry on fixed p318-293F cells, 5 ug scFv in 100 uL, FITC anti-HA detection
T2 construct: also called p318 cells

Human-RAGE-ECD-Fc(IgG1) = target: T3, Human-RAGE-ECD-Fc(IgG1) (human); assay: ELISA, antigen coated at 2 ug/mL, anti-human kappa+lambda-HRP
T3 construct: also called P38406

Cyno-RAGE-ECD-Fc(IgG1) = target: T4, Cyno-RAGE-ECD-Fc(IgG1) (monkey (cyno)); assay: ELISA, antigen with and without NHS-biotin label coated at 4 ug/mL
T4 construct: also called P38408

Mouse-RAGE-ECD-Fc(IgG1) = target: T5, Mouse-RAGE-ECD-Fc(IgG1) (mouse); assay: as above
T5 construct: also called P38410

Human-RAGE-ECD-His = target: T6, Human-RAGE-ECD-His (human, UniProt Q15109 23-342); assay: as above
T6 construct: also called P38405

Cyno-RAGE-ECD-His = target: T7, Cyno-RAGE-ECD-His (monkey (cyno), UniProt Q15109 23-342 (human entry)); assay: as above
T7 construct: also called P38407
T7 chain: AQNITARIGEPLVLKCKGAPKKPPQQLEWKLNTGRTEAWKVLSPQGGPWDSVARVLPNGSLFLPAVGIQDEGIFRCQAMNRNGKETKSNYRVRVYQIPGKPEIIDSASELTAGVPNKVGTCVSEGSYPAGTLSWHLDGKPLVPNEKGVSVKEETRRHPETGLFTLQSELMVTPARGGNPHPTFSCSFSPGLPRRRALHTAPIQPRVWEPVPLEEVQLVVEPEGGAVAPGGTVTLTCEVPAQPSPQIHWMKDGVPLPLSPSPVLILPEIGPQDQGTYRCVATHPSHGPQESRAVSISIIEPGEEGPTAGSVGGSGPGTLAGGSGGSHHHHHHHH

Mouse-RAGE-ECD-His = target: T8, Mouse-RAGE-ECD-His (mouse, UniProt Q62151 23-340); assay: as above
T8 construct: also called P38409
T8 sequence (Q62151 other isoform, or with tags, fused parts or gaps): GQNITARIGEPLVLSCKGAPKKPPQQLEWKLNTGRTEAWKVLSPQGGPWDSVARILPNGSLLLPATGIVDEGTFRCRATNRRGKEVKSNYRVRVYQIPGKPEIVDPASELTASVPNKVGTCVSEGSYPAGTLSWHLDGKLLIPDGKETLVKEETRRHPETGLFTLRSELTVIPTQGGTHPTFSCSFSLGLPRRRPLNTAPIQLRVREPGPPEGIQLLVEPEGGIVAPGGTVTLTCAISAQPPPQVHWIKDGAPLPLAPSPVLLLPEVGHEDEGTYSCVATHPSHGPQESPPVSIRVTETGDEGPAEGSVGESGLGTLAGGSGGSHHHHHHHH

T5 sequence (chain, as listed by the source limits assumed): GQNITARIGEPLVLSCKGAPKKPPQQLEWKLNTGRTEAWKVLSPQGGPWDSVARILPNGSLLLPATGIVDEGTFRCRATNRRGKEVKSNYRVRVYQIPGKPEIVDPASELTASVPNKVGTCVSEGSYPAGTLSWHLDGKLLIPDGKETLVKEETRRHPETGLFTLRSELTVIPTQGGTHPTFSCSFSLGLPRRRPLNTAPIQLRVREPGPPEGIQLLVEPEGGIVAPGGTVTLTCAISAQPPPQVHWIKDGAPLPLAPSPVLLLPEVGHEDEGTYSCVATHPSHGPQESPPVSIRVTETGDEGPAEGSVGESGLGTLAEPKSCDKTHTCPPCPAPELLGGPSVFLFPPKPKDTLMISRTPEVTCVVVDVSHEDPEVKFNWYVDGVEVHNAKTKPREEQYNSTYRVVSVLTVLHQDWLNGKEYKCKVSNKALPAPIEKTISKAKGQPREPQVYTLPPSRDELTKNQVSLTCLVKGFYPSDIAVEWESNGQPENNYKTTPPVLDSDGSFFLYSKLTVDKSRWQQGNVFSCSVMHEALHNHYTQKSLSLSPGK

B1: antiRAGE(A90)-Fc (antibody, human IgG1, kappa)
heavy: not shown
light: NIQLTQSPSTLSASVGDRVTITCRASQSISSWLAWYQQKPGKAPKLLIYQASSLESGVPSRFSGSGSGTEFTLTIRSLQPEDFAVYFCQQYKDYPLTFGGGTKVDIKRTVAAPSVFIFPPSDEQLKSGTASVVCLLNNFYPREAKVQWKVDNALQSGNSQESVTEQDSKDSTYSLSSTLTLSKADYEKHKVYACEVTHQGLSSPVTKSFNRGEC
notes: also called antiRAGE(A90)-Fc-G4S-HA; antiRAGE-Fc-G4S-HA-ALFA
**Q.** Does B1 bind [1]?
**A.** Result: binds

B2: 6xHis-antiRAGE(A90)-scFv-G4S-HA (scFv)
scFv: HHHHHHQVQLVQSGAEVKKPGSSVKVSCKASGGTFNNYAINWARQAPGQGLEWMGRIVPFFDVTNYAQKFQGRVTITADKSTSTAYMELSSLRSEDTAIYYCAIGSFNWNSGAFDIWGQGTPVTVSSGGGGSGGGGSGGGGSNIQLTQSPSTLSASVGDRVTITCRASQSISSWLAWYQQKPGKAPKLLIYQASSLESGVPSRFSGSGSGTEFTLTIRSLQPEDFAVYFCQQYKDYPLTFGGGTKVDIKGGGGSYPYDVPDYA
notes: also called antiRAGE scFv antibody; antiRAGE-scFv
**Q.** Does B2 bind [2]?
**A.** Result: binds

B3: h11E6.16 (antibody, human IgG1, kappa, V domains shown)
VH: EIQLVQSGAEVKKPGASVKVSCKASGYTFTNFGMNWVRQAPGQGLEWMGYINTNTGESIYSEEFKGRFTFTLDTSTSTAYMELSSLRSEDTAVYFCARSRMVTAYGMDYWGQGTSVTVSS
VL: EIVMTQSPATLSLSPGERATLSCKASQNVGTAVAWYQQKPGQSPRLLIFSASNRYTGVPARFSGSGSGTDFTLTISSLQSEDFAVYFCQQYSSYPLTFGQGTKLEIKR
notes: also called h11E6.16 antibody (P38411); P38411
**Q.** Does B3 bind (Human-RAGE-ECD-Fc(IgG1))?
**A.** Result: binds

**Q.** Does B3 bind (Cyno-RAGE-ECD-Fc(IgG1))?
**A.** Result: binds

**Q.** Does B3 bind (Mouse-RAGE-ECD-Fc(IgG1))?
**A.** Result: binds

**Q.** Does B3 bind (Human-RAGE-ECD-His)?
**A.** Result: binds

**Q.** Does B3 bind (Cyno-RAGE-ECD-His)?
**A.** Result: binds

**Q.** Does B3 bind (Mouse-RAGE-ECD-His)?
**A.** Result: binds
